Laboratory results as given in US6043211A, “Method for inhibiting the activity of a platelet-derived growth factor receptor binding protein” (The Regents of the University of California, priority 1995, dated 2000).
“Also recorded” adds a separate entry of the source. Square brackets hold non-standard residues; d marks the D form. Ends that are not written are not given here. Peptide text beside a SMILES is read from it. pY = N[C@@H](Cc1ccc(OP(=O)(O)O)cc1)C(=O)O

What was measured:
[1] = target: T1, type B receptor tyrosine kinase (Homo sapiens, UniProt P09619); assay: Activation of PDGF receptor tyrosine kinase (autophosphorylation, anti-phosphotyrosine Western blot) in CHO-HR5; format: cell-based; conditions: transfected human receptor
T1 construct: expressed in transfected cells; host or cells: CHO (clone CHO-HR5), plasmid pSVRH5
Excerpt: Following polyacrylamide-SDS electrophoresis, the phosphorylated receptor was identified by Western blot using an anti-phosphotyrosine antibody.

[2] = target: T2, 85 kD protein association with type B PDGF receptor (Mus musculus, UniProt P26450); assay: In vitro association of 85 kD phosphoprotein with immobilized baculovirus-expressed PDGF receptor (in vitro kinase assay); format: binding; conditions: peptides (50 μM) preincubated with unstimulated 3T3 lysate, FIG. 4a
T2 construct: Cytoplasmic cell lysates from density-arrested BALB/c 3T3 cells were mixed with the immobilized receptor; endogenous in cells; host or cells: BALB/c 3T3 cell lysate (85 kD protein); receptor made in Sf9 insect cells with recombinant baculovirus
Excerpt: In in vitro experiments, the type B PDGF receptor was expressed in an insect cell expression system, partially purified, and immobilized using anti-receptor antibodies and protein A Sepharose. The receptor was allowed to autophosphorylate in vitro, so that it would be in a conformation that mimicked the ligand-activated state of the receptor. Cytoplasmic cell lysates from density-arrested BALB/c 3T3 cells were mixed with the immobilized receptor and the complexes were washed extensively. […] The receptor-associated phosphoproteins were detected by an in vitro kinase assay using ^32 P-ATP.
To determine the ability of a series of synthetic peptides derived from this sequence to block the interaction between the receptor and the 85 kD/PI3 kinase activity, 3T3 lysates were incubated with the different peptides prior to mixing with immobilized receptor. […] The other lanes show the proteins that associated with the receptor in the presence of derivatives of the Y719 peptide.
Infected cells were washed twice with cold PBS and lysed in 1 ml of lysis buffer (1% NP-40, 20 mM Tris (pH 8.0), 173 mM NaCl, 10% glycerol, 2 mM EDTA, 1 mM phenylmethylsulfonylfluoride (PMSF), aprotinin (0.15 U/ml), 20 μM leupeptin, 1 mM sodium orthovanadate) at 4° C. for 20 min with rocking. In most experiments (except where indicated in the legend of FIG. 3) the immunoprecipitated receptor was autophosphorylated in vitro by incubating the immune complexes in a buffer containing 20 mM Tris (pH 7.5), 20 mM MnCl, 100 μM ATP for 15 min at 25° C. Lysates were cleared of insoluble material by centrifugation at 13,000× g for 10 min. Lysates were incubated with receptor antibodies (1:500 dilution) for 4 h at 4° C. Receptor-antibody complexes were precipitated using Protein-A sepharose (Sigma) and washed consecutively with RIPA buffer (lysis buffer with 0.1% SDS), wash buffer 1 [0.5% NP-40, 0.5 M LiCl, 50 mM Tris (pH 7.4)] and with 10 mM Tris (pH 7.4). The PI3 kinase association assay was performed by incubating the immobilized receptor with BALB c/3T3 cell lysates for 3 hours at 4° C. The immune complexes were consecutively washed with cold PBS; 0.5% NP-40, 0.5 M LiCl and 51 50 mM Tris (pH 7.4).

85 kD protein = target: T3, 85 kD protein (Mus musculus, UniProt P26450); assay: Receptor blot: 32P-labeled PDGF receptor probe binding to immobilized 85 kD protein; conditions: 2.5 μM peptide, FIG. 7
T3 construct: Cytoplasmic cell lysates from density-arrested BALB/c 3T3 cells were mixed with the immobilized receptor; endogenous in cells; host or cells: BALB/c 3T3 cell lysate (85 kD protein); receptor made in Sf9 insect cells with recombinant baculovirus
Excerpt: FIG. 7 illustrates the association of soluble radiolabeled receptor with immobilized 85 kD protein ("receptor blot"). Baculovirus-expressed PDGF receptors were immunoprecipitated using receptor antibodies and the receptor was ^32 P-labeled in vitro by autophosphorylation. The solubilized radiolabeled receptor was used to probe nitrocellulose filters containing SDS-polyacrylamide gel-fractionated lysates from control (lanes 1, 3, 4 and 5) or PDGF stimulated (lane 2) cells. In the peptide competition experiments (lane 3, 4, and 5) the peptides were added to the nitrocellulose paper along with the radiolabeled receptor probe. The arrow indicates the position of the 85 kD protein.
To determine the nature of the interaction of the receptor with the 85 kD protein, a modification of Western blotting methodology was used. PDGF receptor from Sf9 cells infected with PDGF receptor baculovirus was immuno precipitated with receptor antibodies, labeled with ^32 P in vitro, and used as a probe to bind proteins from 3T3 cell lysates that had been separated electrophoretically and transferred to nitrocellulose. The radiolabeled PDGF receptor bound directly to an 85 kDa protein in unstimulated 3T3 cell lysate (FIG. 7, lane 1). […] The direct binding interaction appears to involve the 20 amino acid segment in the kinase insert region containing tyrosine 719, and tyrosine phosphorylation of this segment appears to be necessary for the interaction.
Cell lysate proteins transferred to nitrocellulose membranes were analyzed for their ability to bind directly to the PDGF receptor by probing the nitrocellulose membrane with ^32 P-labeled PDGF receptor. To prepare the radiolabeled receptor probe, baculovirus-expressed receptor was immunoprecipitated from 10^6 Sf9 cells. The immune complexes were washed and labeled by autophosphorylation as described above. Labeled receptor was solubilized from the immunoprecipitates by repeated incubation of the immunoprecipitate in solubilization buffer (0.4% SDS, 100 mM NaCl, 2 mM EDTA, 2 mM β-mercaptoethanol, and 50 mM triethanolamine, pH 7.4) at 100° C. for 2 min. […]

[3] = target: T4, PI3 kinase association with type B PDGF receptor (Mus musculus, UniProt P26450); assay: In vitro association of PI3 kinase activity with immobilized baculovirus-expressed PDGF receptor; format: binding; conditions: for Blocking of association of PI3 kinase activity with the receptor: peptides (50 μM) preincubated with unstimulated 3T3 lysate, FIG. 4b
T4 construct: Cytoplasmic cell lysates from density-arrested BALB/c 3T3 cells were mixed with the immobilized receptor; endogenous in cells; host or cells: BALB/c 3T3 cell lysate (85 kD protein); receptor made in Sf9 insect cells with recombinant baculovirus
Excerpt: An in vitro system was used to study the interaction of PDGF receptors and PI3 kinase. […] These phosphoproteins include the 85 kDa protein and a 110 kDa protein that have recently been correlated with PI3 kinase activity. In in vitro experiments, the type B PDGF receptor was expressed in an insect cell expression system, partially purified, and immobilized using anti-receptor antibodies and protein A Sepharose. The receptor was allowed to autophosphorylate in vitro, so that it would be in a conformation that mimicked the ligand-activated state of the receptor. Cytoplasmic cell lysates from density-arrested BALB/c 3T3 cells were mixed with the immobilized receptor and the complexes were washed extensively. PI3 kinase activity was found in the complex of proteins associated with the receptor (FIG. 1d). The receptor-associated phosphoproteins were detected by an in vitro kinase assay using ^32 P-ATP. At least four receptor-associated proteins with apparent molecular weights of 140 kD, 120/110 kD (sometimes a doublet), 85 kD and 74 kD were radiolabeled (the bands at 160 kD and 150 kD are the baculovirus-expressed receptor and its precursor, respectively). The 140 kD band has been previously identified as […] and the band at 74 kD includes the raf-1 kinase and probably another molecule as well. The 85 kD protein co-migrated with the 85 kD band, previously considered to be PI3 kinase, in anti-phosphotyrosine immunoprecipitates of cell lysates prepared from PDGF-stimulated cells. The association of 85 and 110 kD proteins with the baculovirus-expressed receptor was also observed by silver stain analysis.
To determine the ability of a series of synthetic peptides derived from this sequence to block the interaction between the receptor and the 85 kD/PI3 kinase activity, 3T3 lysates were incubated with the different peptides prior to mixing with immobilized receptor. […] The arrow indicates the position of the 85 kD protein that co-purified with the PI3 kinase activity. […]

[4] = target: T5, transfected type B human receptor (Homo sapiens, UniProt P09619); assay: Competitive binding of PDGF forms against 125I-PDGF on CHO transfectants (CHO-HR5)
T5 construct: expressed in transfected cells; host or cells: CHO (clone CHO-HR5), plasmid pSVRH5
Experimental: Binding was carried out at 37° C. for 45 min in whole cell suspension.

native mouse receptor = assay: Competitive binding of PDGF forms against 125I-PDGF on BALB/c 3T3 cells; conditions: mouse 3T3 cells, yeast-expressed homodimers
Excerpt: The ability of the human recombinant AA and BB homodimers to compete for the type B receptor sites and displace ^125 I-labeled PDGF (prepared as described below) was studied. Each homodimer was produced selectively by a yeast expression system and was purified from yeast media that is devoid of other mesenchymal cell growth factors, thus avoiding the artifact of contamination by factors that might be present in mammalian expression systems.
BALB/c 3T3 cells and CHO transfectants (CHO-HR5) were incubated with ^125 I-PDGF in the presence of increasing concentrations of AA or BB. Binding was carried out at 37° C. for 45 min in whole cell suspension. Unbound, radiolabeled PDGF was removed by centrifugation on a Ficoll gradient Non-specific binding, determined by incubating CHO cells with ^125 I-PDGF, accounted for 25 percent of the bound radioactivity.

T1 sequence (P09619 33-1106): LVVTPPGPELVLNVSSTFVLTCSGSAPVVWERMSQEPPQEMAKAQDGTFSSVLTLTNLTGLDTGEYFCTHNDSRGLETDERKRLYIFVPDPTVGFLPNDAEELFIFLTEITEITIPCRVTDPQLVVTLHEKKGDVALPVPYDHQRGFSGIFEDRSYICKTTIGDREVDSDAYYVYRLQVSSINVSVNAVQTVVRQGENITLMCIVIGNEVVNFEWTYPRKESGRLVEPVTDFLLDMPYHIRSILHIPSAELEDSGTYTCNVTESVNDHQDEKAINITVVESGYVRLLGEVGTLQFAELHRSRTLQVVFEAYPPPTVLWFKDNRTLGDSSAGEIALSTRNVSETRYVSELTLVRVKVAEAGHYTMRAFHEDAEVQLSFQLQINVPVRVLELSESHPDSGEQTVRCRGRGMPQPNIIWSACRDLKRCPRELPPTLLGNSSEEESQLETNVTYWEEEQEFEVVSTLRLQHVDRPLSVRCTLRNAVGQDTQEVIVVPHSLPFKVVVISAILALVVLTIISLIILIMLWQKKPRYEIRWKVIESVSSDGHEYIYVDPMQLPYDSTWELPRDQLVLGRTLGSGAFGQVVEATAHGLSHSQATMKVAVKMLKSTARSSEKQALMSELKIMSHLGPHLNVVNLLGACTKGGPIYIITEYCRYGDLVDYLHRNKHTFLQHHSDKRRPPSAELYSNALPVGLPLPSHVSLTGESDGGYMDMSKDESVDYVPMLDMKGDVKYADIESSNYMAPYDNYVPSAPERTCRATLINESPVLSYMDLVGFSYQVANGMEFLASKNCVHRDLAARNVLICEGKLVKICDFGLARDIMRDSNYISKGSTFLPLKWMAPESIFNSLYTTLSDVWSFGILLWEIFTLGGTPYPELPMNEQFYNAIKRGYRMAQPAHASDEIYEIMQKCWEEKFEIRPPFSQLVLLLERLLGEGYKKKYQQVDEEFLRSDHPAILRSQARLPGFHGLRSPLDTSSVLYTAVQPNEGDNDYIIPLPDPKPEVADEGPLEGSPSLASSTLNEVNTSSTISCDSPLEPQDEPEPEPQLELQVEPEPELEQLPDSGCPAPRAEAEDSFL
T4 sequence (P26450 whole entry): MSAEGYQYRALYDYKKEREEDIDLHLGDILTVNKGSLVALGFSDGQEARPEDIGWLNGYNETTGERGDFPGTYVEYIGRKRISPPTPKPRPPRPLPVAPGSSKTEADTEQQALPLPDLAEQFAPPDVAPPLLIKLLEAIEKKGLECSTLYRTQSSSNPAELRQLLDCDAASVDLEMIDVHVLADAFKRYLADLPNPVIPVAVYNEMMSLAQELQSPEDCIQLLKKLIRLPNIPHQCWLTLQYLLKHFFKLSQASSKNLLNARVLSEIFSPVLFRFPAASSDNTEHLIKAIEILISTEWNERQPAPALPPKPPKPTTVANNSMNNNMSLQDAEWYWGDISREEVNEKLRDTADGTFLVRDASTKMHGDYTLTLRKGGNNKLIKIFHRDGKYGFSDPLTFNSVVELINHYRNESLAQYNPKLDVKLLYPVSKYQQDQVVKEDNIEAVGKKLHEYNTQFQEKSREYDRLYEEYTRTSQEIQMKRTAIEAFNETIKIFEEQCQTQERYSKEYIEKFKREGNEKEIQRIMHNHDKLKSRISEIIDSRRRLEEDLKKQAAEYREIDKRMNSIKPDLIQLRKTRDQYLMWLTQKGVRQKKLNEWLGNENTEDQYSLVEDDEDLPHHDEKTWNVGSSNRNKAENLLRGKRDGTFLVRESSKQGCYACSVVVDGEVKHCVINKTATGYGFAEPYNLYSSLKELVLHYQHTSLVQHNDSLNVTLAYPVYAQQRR
T4 sequence (P42337 whole entry partner): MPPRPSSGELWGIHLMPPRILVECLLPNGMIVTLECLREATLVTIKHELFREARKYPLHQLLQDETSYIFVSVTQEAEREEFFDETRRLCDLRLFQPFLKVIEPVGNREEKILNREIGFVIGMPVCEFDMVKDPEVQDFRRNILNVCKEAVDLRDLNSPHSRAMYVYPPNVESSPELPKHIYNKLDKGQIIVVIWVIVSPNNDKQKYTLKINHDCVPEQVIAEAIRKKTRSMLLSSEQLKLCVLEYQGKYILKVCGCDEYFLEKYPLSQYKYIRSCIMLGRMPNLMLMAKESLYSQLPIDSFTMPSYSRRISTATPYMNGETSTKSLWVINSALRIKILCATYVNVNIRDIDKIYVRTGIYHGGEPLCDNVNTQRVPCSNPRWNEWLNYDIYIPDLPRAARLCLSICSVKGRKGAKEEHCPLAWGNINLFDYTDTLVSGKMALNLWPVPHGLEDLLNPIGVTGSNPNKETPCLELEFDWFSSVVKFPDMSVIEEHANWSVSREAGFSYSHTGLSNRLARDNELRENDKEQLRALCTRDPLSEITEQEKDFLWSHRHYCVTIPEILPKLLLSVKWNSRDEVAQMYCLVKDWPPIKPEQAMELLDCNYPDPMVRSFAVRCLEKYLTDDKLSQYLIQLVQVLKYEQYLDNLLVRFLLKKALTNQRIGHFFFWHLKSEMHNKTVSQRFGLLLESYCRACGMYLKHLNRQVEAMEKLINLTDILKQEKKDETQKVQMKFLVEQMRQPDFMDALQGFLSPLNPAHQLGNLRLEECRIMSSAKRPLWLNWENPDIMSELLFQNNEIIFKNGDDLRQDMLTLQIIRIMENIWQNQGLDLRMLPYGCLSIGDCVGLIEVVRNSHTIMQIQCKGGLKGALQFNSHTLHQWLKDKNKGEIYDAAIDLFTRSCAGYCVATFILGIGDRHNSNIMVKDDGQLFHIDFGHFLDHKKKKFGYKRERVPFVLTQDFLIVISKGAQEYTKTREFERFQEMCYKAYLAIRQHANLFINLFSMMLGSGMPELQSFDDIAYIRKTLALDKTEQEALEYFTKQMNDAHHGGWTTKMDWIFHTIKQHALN
T3 sequence (P26450 whole entry): as the sequence (P26450 whole entry) above
T3 sequence (P42337 whole entry partner): as the sequence (P42337 whole entry partner) above
T2 sequence (P26450 whole entry): as the sequence (P26450 whole entry) above
T2 sequence (P42337 whole entry partner): as the sequence (P42337 whole entry partner) above
T5 sequence (P09619 33-1106): as the sequence (P09619 33-1106) above

Compound | Blocking of binding of the 85 kD phosphoprotein to the receptor [2] | Effect on association of radiolabeled receptor with immobilized 85 kD protein (receptor blot) (85 kD protein) | other results
AB: Human partially purified platelet-derived AB PDGF heterodimer |  |  | Activation of type B receptor tyrosine kinase (autophosphorylation) [1]: stimulated autophosphorylation of the transfected human receptor
CC[C@H](C)[C@H](NC(=O)[C@H](CO)NC(=O)[C@H](CCC(=O)O)NC(=O)[C@H](CC(=O)O)NC(=O)[C@H](CCCCN)NC(=O)[C@H](CO)NC(=O)[C@H](CCSC)NC(=O)[C@H](CC(=O)O)NC(=O)[C@H](CCSC)NC(=O)[C@H](Cc1ccc(OP(=O)(O)O)cc1)NC(=O)CNC(=O)CN)C(=O)N[C@@H](CC(=O)O)C(=O)O [Y708P short] | had blocking activity |  | 
CC[C@H](C)[C@H](NC(=O)[C@H](CO)NC(=O)[C@H](CCC(=O)O)NC(=O)[C@H](CC(=O)O)NC(=O)[C@H](CCCCN)NC(=O)[C@H](CO)NC(=O)[C@H](CCSC)NC(=O)[C@H](CC(=O)O)NC(=O)[C@H](CCSC)NC(=O)[C@H](Cc1ccc(O)cc1)NC(=O)CNC(=O)CN)C(=O)N[C@@H](CC(=O)O)C(=O)N[C@@H](Cc1ccc(O)cc1)C(=O)N[C@H](C(=O)N1CCC[C@H]1C(=O)N[C@@H](CCSC)C(=O)N[C@@H](CC(C)C)C(=O)N[C@@H](CC(=O)O)C(=O)N[C@@H](CCSC)C(=O)O)C(C)C [Y719] (H-GGYMDMSKDESIDYVPMLDM-OH) | No change in the pattern of receptor-associated protein | did not interfere with the association of the receptor with the 85 kD protein | 
MMDIKVPMDEYMSDYSDLGG (MMDIKVPMDE[pY]MSDYSDLGG; not fully specified; printed as MMDIKVPMDE*YMSDYSDLGG) [Y719P scrambled] | failed to block binding of the 85 kD protein | did not interfere with the association of the receptor with the 85 kD protein | Blocking of association of PI3 kinase activity with the receptor [3]: did not prevent the association of PI3 kinase activity with the receptor
AA: Human recombinant AA homodimer of PDGF produced by a yeast expression system |  |  | Relative affinity for the transfected type B human receptor ([4]; CHO-HR5, yeast-expressed homodimers): lower affinity than the BB form; Competition for 125I-PDGF labeled sites ([4]; human receptor transfectants, 37° C., 45 min): competed; Activation of type B receptor tyrosine kinase (autophosphorylation) [1]: stimulated autophosphorylation of the transfected human receptor; also recorded: activates the receptor tyrosine kinase of the type B receptor; Relative affinity for the native mouse receptor (native mouse receptor): lower affinity than the BB form
MDMSKDESIDYVPMLDM (MDMSKDESID[pY]VPMLDM) [Y719P short] | blocked binding of the 85 kD protein; also recorded: had blocking activity |  | Blocking of association of PI3 kinase activity with the receptor [3]: inhibited the association of PI3 kinase activity with the receptor
CC[C@H](C)[C@H](NC(=O)[C@H](CO)NC(=O)[C@H](CCC(=O)O)NC(=O)[C@H](CC(=O)O)NC(=O)[C@H](CCCCN)NC(=O)[C@H](CO)NC(=O)[C@H](CCSC)NC(=O)[C@H](CC(=O)O)NC(=O)[C@H](CCSC)NC(=O)[C@H](Cc1ccc(OP(=O)(O)O)cc1)NC(=O)CNC(=O)CN)C(=O)N[C@@H](CC(=O)O)C(=O)N[C@@H](Cc1ccc(OP(=O)(O)O)cc1)C(=O)N[C@H](C(=O)N1CCC[C@H]1C(=O)N[C@@H](CCSC)C(=O)N[C@@H](CC(C)C)C(=O)N[C@@H](CC(=O)O)C(=O)N[C@@H](CCSC)C(=O)O)C(C)C [Y708P/Y719P] | blocked binding of the 85 kD protein |  | 
CC[C@H](C)[C@H](NC(=O)[C@H](CO)NC(=O)[C@H](CCC(=O)O)NC(=O)[C@H](CC(=O)O)NC(=O)[C@H](CCCCN)NC(=O)[C@H](CO)NC(=O)[C@H](CCSC)NC(=O)[C@H](CC(=O)O)NC(=O)[C@H](CCSC)NC(=O)[C@H](Cc1ccc(O)cc1)NC(=O)CNC(=O)CN)C(=O)N[C@@H](CC(=O)O)C(=O)N[C@@H](Cc1ccc(OP(=O)(O)O)cc1)C(=O)N[C@H](C(=O)N1CCC[C@H]1C(=O)N[C@@H](CCSC)C(=O)N[C@@H](CC(C)C)C(=O)N[C@@H](CC(=O)O)C(=O)N[C@@H](CCSC)C(=O)O)C(C)C [Y719P] | blocked the binding of the 85 kD phosphoprotein | failed to associate with the 85 kD protein | IC50 [3]: ~5 µM
